The chains are these.
B1: VH-D108H (antibody, V domains shown)
VH: EMQLVESGGGLVQPGGSLRLSCAASGFTFSSHWMKWVRQAPGKGLEWVANINQDGSEKYYVDSVKGRFTISRDNAKNSLFLQMNSLRAEDTAVYYCARDIVLMVYDMHYYYYGMDVWGQGTTVTVSS
VL: not shown
notes: His variant of 300N
B2: VK-Y37H (antibody, V domains shown)
VH: B1 VH with H108D
VL: not shown
notes: His variant of 300N
B3: VH-M107H (antibody, V domains shown)
VH: B1 VH with M107H, H108D
VL: not shown
notes: His variant of 300N
B4: VK-N36H (antibody, V domains shown)
VH: B1 VH with H108D
VL: not shown
notes: His variant of 300N
B5: VK-S57H (antibody, V domains shown)
VH: B1 VH with H108D
VL: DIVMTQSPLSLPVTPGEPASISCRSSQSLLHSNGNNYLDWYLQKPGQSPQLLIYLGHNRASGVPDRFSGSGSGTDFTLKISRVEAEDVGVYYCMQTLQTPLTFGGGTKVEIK
notes: His variant of 300N
B6: VK-S28H (antibody, V domains shown)
VH: B1 VH with H108D
VL: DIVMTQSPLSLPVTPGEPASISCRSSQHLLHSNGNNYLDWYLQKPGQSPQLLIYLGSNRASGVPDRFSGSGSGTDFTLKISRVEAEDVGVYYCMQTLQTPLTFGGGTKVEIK
notes: His variant of 300N
B7: VK-P100H (antibody, V domains shown)
VH: B1 VH with H108D
VL: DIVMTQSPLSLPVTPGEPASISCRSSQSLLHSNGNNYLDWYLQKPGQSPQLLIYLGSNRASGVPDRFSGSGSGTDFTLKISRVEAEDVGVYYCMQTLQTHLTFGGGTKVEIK
notes: His variant of 300N
B8: VH-V104H (antibody, V domains shown)
VH: B1 VH with V104H, H108D
VL: not shown
notes: His variant of 300N
B9: VH-Y112H (antibody, V domains shown)
VH: B1 VH with H108D, Y112H
VL: not shown
notes: His variant of 300N
B10: VK-T99H (antibody, V domains shown)
VH: B1 VH with H108D
VL: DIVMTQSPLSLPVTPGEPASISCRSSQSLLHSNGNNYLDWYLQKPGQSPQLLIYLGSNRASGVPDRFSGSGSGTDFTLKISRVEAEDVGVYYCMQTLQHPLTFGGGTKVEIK
notes: His variant of 300N
B11: VH-V101H (antibody, V domains shown)
VH: B1 VH with V101H, H108D
VL: not shown
notes: His variant of 300N
B12: VK-Q98H (antibody, V domains shown)
VH: B1 VH with H108D
VL: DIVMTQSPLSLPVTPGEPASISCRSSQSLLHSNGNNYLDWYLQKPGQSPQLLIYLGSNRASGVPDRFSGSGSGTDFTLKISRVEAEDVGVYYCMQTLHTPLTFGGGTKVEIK
notes: His variant of 300N
B13: VK-T102H (antibody, V domains shown)
VH: B1 VH with H108D
VL: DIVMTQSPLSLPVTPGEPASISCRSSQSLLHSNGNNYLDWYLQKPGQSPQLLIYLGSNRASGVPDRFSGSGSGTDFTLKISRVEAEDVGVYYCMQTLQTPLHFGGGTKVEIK
notes: His variant of 300N
B14: VK-Q95H (antibody, V domains shown)
VH: B1 VH with H108D
VL: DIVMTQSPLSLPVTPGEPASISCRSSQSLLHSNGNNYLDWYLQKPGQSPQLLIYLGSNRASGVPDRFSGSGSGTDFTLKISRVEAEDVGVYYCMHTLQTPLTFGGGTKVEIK
notes: His variant of 300N
B15: VK-Q27H (antibody, V domains shown)
VH: B1 VH with H108D
VL: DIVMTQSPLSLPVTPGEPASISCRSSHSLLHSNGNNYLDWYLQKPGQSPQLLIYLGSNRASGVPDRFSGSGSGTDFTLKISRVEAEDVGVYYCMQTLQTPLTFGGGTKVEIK
notes: His variant of 300N
B16: 300N(v1) (antibody, IgG1, V domains shown)
VH: B1 VH with H108D
VL: not shown
B17: 316P(v2) (antibody, IgG4, V domains shown)
VH: EVQLVESGGGLVQPGGSLRLSCAASGFTFNNYAMNWVRQAPGKGLDWVSTISGSGGTTNYADSVKGRFIISRDSSKHTLYLQMNSLRAEDTAVYYCAKDSNWGNFDLWGRGTLVTVSS
VL: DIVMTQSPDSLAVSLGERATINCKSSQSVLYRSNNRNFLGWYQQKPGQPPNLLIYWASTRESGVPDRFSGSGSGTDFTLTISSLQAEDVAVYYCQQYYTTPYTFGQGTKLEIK
notes: also called 316(v2)

Numbering of substitutions follows the chain as printed.

The first assay concerns the target T1, human PCSK9 with a C-terminal myc-myc-hexahistidine tag (human, UniProt Q8NBP7 31-692, limits assumed).
T1 construct: also called hPCSK9-mmH; hPCSK9-mmh; not shown: C-terminal myc-myc-hexahistidine tag
Nature of the assay: SPR 25C, mAb captured.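 Also: biacore CM4 surface bearing anti-human Fc antibody capturing the mAbs, PCSK9 binding and release rates fitted with a one-to-one model, KD and half-life derived from those rates.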
For the molecule B1, the “KD ratio pH 5.75/pH 7.2” value amounted to 1.73 and the “t½ ratio pH 5.75/pH 7.2” value came out at 0.24.

For B2, the “KD ratio pH 5.75/pH 7.2” value amounted to 72.3 and the “t½ ratio pH 5.75/pH 7.2” value worked out at 0.54.

Take B3: the “KD ratio pH 5.75/pH 7.2” value was 4.02 and the “t½ ratio pH 5.75/pH 7.2” value was found to be 0.02.

For B4, the “KD ratio pH 5.75/pH 7.2” value stood at 1.61 and the “t½ ratio pH 5.75/pH 7.2” value is 0.24.

Take B5: the “KD ratio pH 5.75/pH 7.2” value came out at 1.84 and the “t½ ratio pH 5.75/pH 7.2” value stood at 0.26.

As for B6, the “KD ratio pH 5.75/pH 7.2” value is 0.06 and the “t½ ratio pH 5.75/pH 7.2” value was determined as 22.2.

As to B7, the “KD ratio pH 5.75/pH 7.2” value is 1.44 and the “t½ ratio pH 5.75/pH 7.2” value stood at 0.1.

For B8, the “KD ratio pH 5.75/pH 7.2” value turned out to be 8.51 and the “t½ ratio pH 5.75/pH 7.2” value was 0.04.

Regarding B9, the “KD ratio pH 5.75/pH 7.2” value was 4.52 and the “t½ ratio pH 5.75/pH 7.2” value is 0.01.

For the molecule B10, the “KD ratio pH 5.75/pH 7.2” value was 1.25 and the “t½ ratio pH 5.75/pH 7.2” value stood at 0.1.

As to B11, the “KD ratio pH 5.75/pH 7.2” value was 1.43 and the “t½ ratio pH 5.75/pH 7.2” value was 0.14.

For B12, the “KD ratio pH 5.75/pH 7.2” value came out at 0.88 and the “t½ ratio pH 5.75/pH 7.2” value was found to be 0.41.

Take B13: the “KD ratio pH 5.75/pH 7.2” value worked out at 1.17 and the “t½ ratio pH 5.75/pH 7.2” value was 0.33.

On to B14, for which the “KD ratio pH 5.75/pH 7.2” value worked out at 1.48 and the “t½ ratio pH 5.75/pH 7.2” value was 0.23.

For B15, the “KD ratio pH 5.75/pH 7.2” value amounted to 0.57 and the “t½ ratio pH 5.75/pH 7.2” value amounted to 0.42.

A further assay addresses human PCSK9 with a C-terminal myc-myc hexahistidine tag and a D374Y mutation (human, UniProt Q8NBP7 31-692, limits assumed). Nature of the assay: cell-based or functional assay.
In the case of B1, the “IC50, LDL uptake in HepG2 cells, 2 nM hPCSK9-D374Y-mmH” value (“IC50 … 2 nM hPCSK9-D374Y-mmH” for short) was 2.6 nM.

In the case of B3, the “IC50 … 2 nM hPCSK9-D374Y-mmH” value came out at 4.6 nM.

Regarding B8, the “IC50 … 2 nM hPCSK9-D374Y-mmH” value was determined as 4.7 nM.

As for B9, the “IC50 … 2 nM hPCSK9-D374Y-mmH” value stood at 4.7 nM.

Take B11: the “IC50 … 2 nM hPCSK9-D374Y-mmH” value stood at 4.7 nM.

For a further assay, the target named is recombinant cynomolgus monkey PCSK9 with a C-terminal myc-myc hexahistidine tag (cynomolgus monkey, UniProt A8T662 31-692 (Macaca nemestrina entry), limits assumed). Briefly: cell-based or functional assay.
Turning to B1, the “IC50, LDL uptake in HepG2 cells, 50 nM MfPCSK9-mmH” value (shortened to “IC50 … 50 nM MfPCSK9-mmH”) was 12.7 nM.

On to B3, for which the “IC50 … 50 nM MfPCSK9-mmH” value was determined as 15.9 nM.

Regarding B8, the “IC50 … 50 nM MfPCSK9-mmH” value was 15.8 nM.

Turning to B9, the “IC50 … 50 nM MfPCSK9-mmH” value was determined as 21.2 nM.

For the molecule B11, the “IC50 … 50 nM MfPCSK9-mmH” value amounted to 17.2 nM.

The next assay has as its target T1, human PCSK9 with a C-terminal …. Briefly: cell-based or functional assay.
As for B16, the “IC50, LDL uptake in HepG2 cells, 100 nM hPCSK9-mmH” value worked out at 28 nM.

Another assay has the same target. Nature of the assay: SPR 25C pH 7.2, mAb captured.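 Also: biacore SPR, antibodies captured on anti-human Fc CM4 chip with PCSK9 flowed as analyte, rate constants from a one-to-one kinetic fit, KD and half-life derived from them.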
In the case of B1, the Kd (as a rule, the free concentration of one partner at which half of the binding sites on the other are occupied at equilibrium, for simple one-to-one binding) was 2.69 nM and the t½ (in general, the time in which the quantity being followed falls by half) was determined as 28 min.

As to B2, the affinity, expressed as Kd, was 61.2 nM and the t½ was found to be 0 min.

In the case of B3, the affinity, expressed as Kd, was 7.34 nM and the t½ is 13 min.

Regarding B4, the affinity, expressed as Kd, was 0.952 nM and the t½ is 42 min.

For the molecule B5, the affinity, expressed as Kd, was 0.948 nM and the t½ amounted to 48 min.

Take B6: the affinity, expressed as Kd, was 138 nM and the t½ turned out to be 0 min.

The molecule B7 registered a Kd of 8.9 nM and a t½ of 4 min.

In the case of B8, the affinity, expressed as Kd, was 5.6 nM and the t½ was found to be 11 min.

The molecule B9 displayed a Kd of 12.3 nM and a t½ of 5 min.

As for B10, the Kd is 9.63 nM and the t½ worked out at 5 min.

With B11, the equilibrium dissociation constant (Kd) turned out to be 7.33 nM and the t½ turned out to be 25 min.

B12: binding was characterised by a dissociation constant (Kd) of 0.914 nM and the t½ is 49 min.

For B13, the Kd came out at 1.03 nM and the t½ was found to be 49 min.

Turning to B14, the affinity, expressed as Kd, was 1.33 nM and the t½ was determined as 27 min.

In turn, B15 registered a Kd of 5.01 nM and a t½ of 9 min.

Another assay has the same target. Nature of the assay: SPR 25C pH 5.75, mAb captured.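 Also: biacore surface with anti-human Fc antibody capturing the antibodies, PCSK9 as analyte, one-to-one kinetic fit, KD as kd over ka, half-life derived from kd.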
Method: (§1) A Biacore CM4 sensor chip was derivatized with a monoclonal mouse anti-human Fc antibody to capture human antibodies. The histidine substitution variant anti-PCSK9 antibodies were captured onto the anti-human Fc sensor surface from culture medium after transient expression in Chinese hamster ovary (CHO) cells. […] Kinetic association (kₐ) and dissociation (kd) rate constants were determined by processing and fitting the data to a 1:1 binding model using Scrubber 2.0 curve fitting software. Binding dissociation equilibrium constants (KD) and dissociative half-lives (t_{1/2}) were calculated from the kinetic rate constants as: KD (M)=kd/kₐ; and t_{1/2} (min)=(In2/(60*kd).
Turning to B1, the dissociation constant Kd amounted to 4.67 nM and the t½ is 7 min.

With B2, the equilibrium dissociation constant (Kd) was 4420 nM and the t½ came out at 0.2 min.

Take B3: the Kd amounted to 29.5 nM and the t½ is 0.2 min.

B4 registered an equilibrium dissociation constant (Kd) of 1.54 nM and a t½ of 10 min.

B5 gave a Kd of 1.74 nM and a t½ of 12 min.

In the case of B6, the Kd is 7.63 nM and the t½ was 6 min.

In the case of B7, the Kd was 12.8 nM and the t½ was determined as 0.4 min.

The molecule B8 came in with a dissociation constant (Kd) of 47.6 nM and a t½ of 0.4 min.

Regarding B9, binding was put at a Kd of 55.7 nM and the t½ stood at 0.04 min.

Turning to B10, the dissociation constant Kd was 12 nM and the t½ was 0.4 min.

For the molecule B11, binding was characterised by a dissociation constant (Kd) of 10.5 nM and the t½ is 3 min.

In turn, B12 yielded a dissociation constant Kd of 0.805 nM and a t½ of 20 min.

Consider B13, for which the Kd stood at 1.21 nM and the t½ turned out to be 16 min.

The molecule B14 yielded an equilibrium dissociation constant (Kd) of 1.97 nM and a t½ of 6 min.

B15 came in with a Kd of 2.85 nM and a t½ of 4 min.

For the next assay the target is unchanged. Nature of the assay: SPR 25C, purified mAb captured.
Method: as §1
(§2) Also included in these experiments were several control/comparator antibodies. All measurements were taken at 25° C.
B17: the “KD ratio pH 6.0/pH 7.4” value worked out at 0.41, the “ka ratio pH 6.0/pH 7.4” value was found to be 1.25, the “kd ratio pH 6.0/pH 7.4” value amounted to 0.51 and the “t½ ratio pH 6.0/pH 7.4” value worked out at 1.96.

In the case of B16, the “KD ratio pH 6.0/pH 7.4” value is 2.33, the “ka ratio pH 6.0/pH 7.4” value came out at 1.85, the “kd ratio pH 6.0/pH 7.4” value amounted to 4.33 and the “t½ ratio pH 6.0/pH 7.4” value was determined as 0.23.

For a further assay the target is unchanged. Briefly: SPR 25C pH 7.4, purified mAb captured.
Method: as §1
All measurements were taken at 25° C.
In the case of B17, the affinity, expressed as Kd, was 0.566 nM; the koff (usually a measure of how fast the partners let go of each other) amounted to 0.000292 s⁻¹; the kon – broadly, a measure of how fast the partners come together – was 517000 M⁻¹ s⁻¹; the t½ came to 39.5 min.

Molecule B16 had a Kd of 0.507 nM, a koff of 7.03e-05 s⁻¹, a kon of 139000 M⁻¹ s⁻¹ and a t½ of 164 min.

A further assay shares this target. Nature of the assay: SPR 25C pH 6.0, purified mAb captured.
Method: as §1, §2
Turning to B17, binding was characterised by a dissociation constant (Kd) of 0.23 nM, the koff is 0.000149 s⁻¹, the kon was 649000 M⁻¹ s⁻¹ and the t½ worked out at 77.5 min.

On to B16, for which the Kd worked out at 1.18 nM, the off-rate constant (koff) was determined as 0.000304 s⁻¹, the on-rate (kon) came to 257000 M⁻¹ s⁻¹ and the t½ stood at 38 min.

The target is the same in a further assay. Nature of the assay: blocking ELISA, hPCSK9-mmH vs coated hLDLR EGFA-hFc. (In general: In an ELISA, binding on a coated surface is turned into a signal by an enzyme label.)
Method: (§3) Briefly, hLDLR EGFA-hFc was coated at 2 μg/mL in PBS on a 96-well microtiter plate overnight at 4° C. followed by blocking with a solution of 0.5% (w/v) BSA in PBS.
(§4) The equilibrated sample solutions were then transferred to a LDLR EGFA-hFc coated plate.
For B16, the “IC50 ratio (pH 5.75/pH 7.2)” value stood at 1.4.

For another assay the target is unchanged. Nature of the assay: blocking ELISA pH 7.2, 500 pM hPCSK9-mmH vs coated hLDLR EGFA-hFc.
Method: as §3, §4
In the case of B16, 0.19 nM corresponded to half-maximal inhibition (IC50).

Another assay has the same target. Briefly: blocking ELISA pH 5.75, 500 pM hPCSK9-mmH vs coated hLDLR EGFA-hFc.
Method: as §3, §4
With B16, the half-inhibitory concentration (IC50) (as a rule, the concentration that gives 50% inhibition) came out at 0.266 nM.

For a further assay the target is unchanged. Briefly: blocking ELISA pH 7.2, 500 pM hPCSK9-mmH vs coated hLDLR EGFA-hFc, exp #1.
From the text: The equilibrated sample solutions were then transferred to the LDLR EGFA-hFc coated plate prepared as described above.
Consider B1, for which the 50% inhibitory concentration (IC50) was found to be 0.334 nM.

In the case of B3, the midpoint of inhibition, the IC50, lay at 0.704 nM.

B8 yielded a half-maximal inhibitory concentration (IC50) of 0.331 nM.

With B9, half-maximal inhibition (IC50) required 0.506 nM.

For the molecule B11, the IC50 came to 0.857 nM.
